Experimental data from patent US20250263462A1 (US Dept. of Health and Human Services, published 2025).
Like-named read-outs stand apart in the source and are kept apart here.

Experiments:
Experiment in all cases: cell-based or functional assay
[1] = molecular target: T1, KRAS G12D 10-mer peptide … (SEQ ID NO: 2) presented by HLA-A11 on pulsed cells (human, UniProt A*11:01)
[2] = molecular target: T2, WT KRAS 10-mer peptide (SEQ ID NO: 30) presented by HLA-A11 on pulsed cells (human, UniProt A*11:01)
[3] = molecular target: HLA-A11 on COS7/A11 cells expressing the WT KRAS minigene (23-mer SEQ ID NO: 118) (human, UniProt A*11:01)
[4] = molecular target: HLA-A11 on COS7/A11 cells expressing the KRAS G12D minigene (23-mer SEQ ID NO: 119) (human, UniProt A*11:01)
[5] = molecular target: HLA-A11 on COS7/A11 cells expressing the KRAS G12V minigene (23-mer SEQ ID NO: 120) (human, UniProt A*11:01)
[6] = molecular target: T1, KRAS G12D 10-mer peptide … (SEQ ID NO: …); remark: listed apart in the source
[7] = molecular target: T2, WT KRAS 10-mer peptide (SEQ ID NO: 30) …; remark: listed apart in the source
[8] = molecular target: T3, KRAS G12D 9-mer peptide KRAS8-16 … (SEQ ID NO: 34) presented by HLA-A11 on pulsed cells (human, UniProt A*11:01)
[9] = molecular target: T1, KRAS G12D 10-mer peptide … (SEQ ID NO: …); remark: listed apart in the source
[10] = molecular target: T2, WT KRAS 10-mer peptide (SEQ ID NO: 30) …; remark: listed apart in the source
[11] = molecular target: T3, KRAS G12D 9-mer peptide KRAS8-16 … (SEQ …); remark: listed apart in the source
[12] = molecular target: KRAS G12V 9-mer peptide … (SEQ ID NO: 35) presented by HLA-A11 on pulsed cells (human, UniProt A*11:01)

B1: TRAV3-3*01/TRBV4*01 murine anti-KRAS G12V TCR (SEQ ID NOs: 133 and 134) (TCR, V domains shown)
V domain 1: GEQVEQRPPHLSVREGDSAVITCTYTDPNSYYFFWYKQEPGASLQLLMKVFSSTEINEGQGFTVLLNKKDKRLSLNLTAAHPGDSAAYFCAVSGGTNSAGNKLTFGIGTRVLVRP
V domain 2: ETAVFQTPNYHVTQVGNEVSFNCKQTLGHDTMYWYKQDSKKLLKIMFSYNNKQLIVNETVPRRFSPQSSDKAHLNLRIKSVEPEDSAVYLCASSRDWGPAEQFFGPGTRLTVLE
IFN-γ, PBL + pulsed Cos7/A11 [1]: 39 pg/mL | IFN-γ, PBL + pulsed Cos7/A11 [2]: 36 pg/mL | IFN-γ, PBL + Cos7/A11 minigene transfectant [3]: 41 pg/mL | IFN-γ, PBL + Cos7/A11 minigene transfectant [4]: 38 pg/mL | IFN-γ, PBL + Cos7/A11 minigene transfectant [5]: 11100 pg/mL | IFN-γ, PBL + Cos7/A11 pulsed at 10^-6 (10^× µM) [6]: 43 pg/mL | IFN-γ, PBL + Cos7/A11 pulsed at 10^-7 (10^× µM) [6]: 40 pg/mL | IFN-γ, PBL + Cos7/A11 pulsed at 10^-8 (10^× µM) [6]: 46 pg/mL | IFN-γ, PBL + Cos7/A11 pulsed at 10^-9 (10^× µM) [6]: 41 pg/mL | IFN-γ, PBL + Cos7/A11 pulsed at 10^-10 (10^× µM) [6]: 53 pg/mL | IFN-γ, PBL + Cos7/A11 pulsed at 10^-11 (10^× µM) [6]: 43 pg/mL | IFN-γ, PBL + Cos7/A11 pulsed at 10^-12 (10^× µM) [6]: 49 pg/mL | IFN-γ, PBL + Cos7/A11 pulsed at 10^-13 (10^× µM) [6]: 49 pg/mL | IFN-γ, PBL + Cos7/A11 pulsed at 10^-6 (10^× µM) [7]: 50 pg/mL | IFN-γ, PBL + Cos7/A11 pulsed at 10^-7 (10^× µM) [7]: 42 pg/mL | IFN-γ, PBL + Cos7/A11 pulsed at 10^-8 (10^× µM) [7]: 50 pg/mL | IFN-γ, PBL + Cos7/A11 pulsed at 10^-9 (10^× µM) [7]: 50 pg/mL | IFN-γ, PBL + Cos7/A11 pulsed at 10^-10 (10^× µM) [7]: 48 pg/mL | IFN-γ, PBL + Cos7/A11 pulsed at 10^-11 (10^× µM) [7]: 55 pg/mL | IFN-γ, PBL + Cos7/A11 pulsed at 10^-12 (10^× µM) [7]: 47 pg/mL | IFN-γ, PBL + Cos7/A11 pulsed at 10^-13 (10^× µM) [7]: 68 pg/mL | IFN-γ, PBL + Cos7/A11 pulsed at 10^-6 (10^× µM) [8]: 47 pg/mL | IFN-γ, PBL + Cos7/A11 pulsed at 10^-7 (10^× µM) [8]: 48 pg/mL | IFN-γ, PBL + Cos7/A11 pulsed at 10^-8 (10^× µM) [8]: 49 pg/mL | IFN-γ, PBL + Cos7/A11 pulsed at 10^-9 (10^× µM) [8]: 44 pg/mL | IFN-γ, PBL + Cos7/A11 pulsed at 10^-10 (10^× µM) [8]: 52 pg/mL | IFN-γ, PBL + Cos7/A11 pulsed at 10^-11 (10^× µM) [8]: 49 pg/mL | IFN-γ, PBL + Cos7/A11 pulsed at 10^-12 (10^× µM) [8]: 55 pg/mL | IFN-γ, PBL + Cos7/A11 pulsed at 10^-13 (10^× µM) [8]: 52 pg/mL

B2: TRAV19*01/TRBV13-1*02 murine anti-KRAS G12V TCR (SEQ ID NOs: 145 and 146) (TCR, V domains shown)
V domain 1: GQQVKQSSPSLTVQEGGILILNCDYENDMFDYFAWYKKYPDNSPTLLISVRSNVDKREDGRFTVFLNKSGKHFSLHITASQPEDTAVYLCAAGDSGGSNYKLTFGKGTLLTVTP
V domain 2: EAAVTQSPRNKVTVTGGNVTLSCRQTNSHNYMYWYRQDTGHGLRLIHYSYGAGNLQIGDVPDGYKATRTTQEDFFLLLELASPSQTSLYFCASASWGGYAEQFFGPGTRLTVLE
IFN-γ, PBL + pulsed Cos7/A11 [1]: 94 pg/mL | IFN-γ, PBL + pulsed Cos7/A11 [2]: 90 pg/mL | IFN-γ, PBL + Cos7/A11 minigene transfectant [3]: 92 pg/mL | IFN-γ, PBL + Cos7/A11 minigene transfectant [4]: 81 pg/mL | IFN-γ, PBL + Cos7/A11 minigene transfectant [5]: 18100 pg/mL | IFN-γ, PBL + Cos7/A11 pulsed at 10^-6 (10^× µM) [9]: 61 pg/mL | IFN-γ, PBL + Cos7/A11 pulsed at 10^-7 (10^× µM) [9]: 50 pg/mL | IFN-γ, PBL + Cos7/A11 pulsed at 10^-8 (10^× µM) [9]: 49 pg/mL | IFN-γ, PBL + Cos7/A11 pulsed at 10^-9 (10^× µM) [9]: 59 pg/mL | IFN-γ, PBL + Cos7/A11 pulsed at 10^-10 (10^× µM) [9]: 52 pg/mL | IFN-γ, PBL + Cos7/A11 pulsed at 10^-11 (10^× µM) [9]: 64 pg/mL | IFN-γ, PBL + Cos7/A11 pulsed at 10^-12 (10^× µM) [9]: 62 pg/mL | IFN-γ, PBL + Cos7/A11 pulsed at 10^-13 (10^× µM) [9]: 63 pg/mL | IFN-γ, PBL + Cos7/A11 pulsed at 10^-6 (10^× µM) [10]: 57 pg/mL | IFN-γ, PBL + Cos7/A11 pulsed at 10^-7 (10^× µM) [10]: 56 pg/mL | IFN-γ, PBL + Cos7/A11 pulsed at 10^-8 (10^× µM) [10]: 57 pg/mL | IFN-γ, PBL + Cos7/A11 pulsed at 10^-9 (10^× µM) [10]: 49 pg/mL | IFN-γ, PBL + Cos7/A11 pulsed at 10^-10 (10^× µM) [10]: 57 pg/mL | IFN-γ, PBL + Cos7/A11 pulsed at 10^-11 (10^× µM) [10]: 65 pg/mL | IFN-γ, PBL + Cos7/A11 pulsed at 10^-12 (10^× µM) [10]: 67 pg/mL | IFN-γ, PBL + Cos7/A11 pulsed at 10^-13 (10^× µM) [10]: 70 pg/mL | IFN-γ, PBL + Cos7/A11 pulsed at 10^-6 (10^× µM) [11]: 63 pg/mL | IFN-γ, PBL + Cos7/A11 pulsed at 10^-7 (10^× µM) [11]: 57 pg/mL | IFN-γ, PBL + Cos7/A11 pulsed at 10^-8 (10^× µM) [11]: 48 pg/mL | IFN-γ, PBL + Cos7/A11 pulsed at 10^-9 (10^× µM) [11]: 54 pg/mL | IFN-γ, PBL + Cos7/A11 pulsed at 10^-10 (10^× µM) [11]: 62 pg/mL | IFN-γ, PBL + Cos7/A11 pulsed at 10^-11 (10^× µM) [11]: 52 pg/mL | IFN-γ, PBL + Cos7/A11 pulsed at 10^-12 (10^× µM) [11]: 57 pg/mL | IFN-γ, PBL + Cos7/A11 pulsed at 10^-13 (10^× µM) [11]: 70 pg/mL | IFN-γ, PBL + Cos7/A11 pulsed at 10^-6 (10^× µM) [12]: 112 pg/mL | IFN-γ, PBL + Cos7/A11 pulsed at 10^-7 (10^× µM) [12]: 70 pg/mL | IFN-γ, PBL + Cos7/A11 pulsed at 10^-8 (10^× µM) [12]: 52 pg/mL | IFN-γ, PBL + Cos7/A11 pulsed at 10^-9 (10^× µM) [12]: 55 pg/mL | IFN-γ, PBL + Cos7/A11 pulsed at 10^-10 (10^× µM) [12]: 64 pg/mL | IFN-γ, PBL + Cos7/A11 pulsed at 10^-11 (10^× µM) [12]: 62 pg/mL | IFN-γ, PBL + Cos7/A11 pulsed at 10^-12 (10^× µM) [12]: 66 pg/mL | IFN-γ, PBL + Cos7/A11 pulsed at 10^-13 (10^× µM) [12]: 64 pg/mL
